Measured values from patent US20040180417.

T1: PC cleavage site-spanning peptide of proBACE
T1 chain: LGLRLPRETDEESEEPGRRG

T2: 20 aa synthetic peptide spanning the β-secretase cleavage site of βAPPSW
T2 chain: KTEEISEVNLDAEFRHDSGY

B1: [BACES]V5, soluble mouse BACE ending at Thr454 followed by a V5 epitope (protein)
chain: THLGIRLPLRSGLAGPPLGLRLPRETDEESEEPGRRGSFVEMVDNLRGKSGQGYYVEMTRGQPLTKLNILVDTGSSNFAVGAAPHPFLHRYYQRQLSSTYRDLRKGVYVPYTQGKWEGELGTDLVSIPHGPNVTVRANIAAITESDKFFINGSNWEGILGLAYAEIARPDDSLEPFFDSLVKQTHIPNIFSLQLCGAGFPLNQTEALASVGGSMIIGGIDHSLYTGSLWYTPIRREWYYEVIIVRVEINGQDLKMDCKEYNYDKSIVDSGTTNLRLPKKVFEAAVKSIKAASSTEKFPDGFWLGEQLVCWQAGTTPWNIFPVISLYLMGEVTNQSFRITILPQQYLRPVEDVATSQDDCYKFAVSQSSTGTVMGAVIMEGFYVVFDRARKRIGFAVSACHVHDEFRTAAVEGPFVTADMEDCGYNIPQTDESTGKPIPNPLLGLDST
B2: PACE4 (protein)
chain: QVRSDPQALYFNDPIWSNMWYLHCGDKNSRCRSEMNVQAAWKRGYTGKNVVVTILDDGIERNHPDLAPNYDSYASYDVNGNDYDPSPRYDASNENKHGTRCAGEVAASANNSYCIVGIAYNAKIGGIRMLDGDVTDVVEAKSLGIRPNYIDIYSASWGPDDDGKTVDGPGRLAKQAFEYGIKKGRQGLGSIFVWASGNGGREGDYCSCDGYTNSIYTISVSSATENGYKPWYLEECASTLATTYSSGAFYERKIVTTDLRQRCTDGHTGTSVSAPMVAGIIALALEANSQLTWRDVQHLLVKTSRPAHLKASDWKVNGAGHKVSHFYGFGLVDAEALVVEAKKWTAVPSQHMCVAASDKRPRSIPLVQVLRTTALTSACAEHSDQRVVYLEHVVVRTSISHPRRGDLQIYLVSPSGTKSQLLAKRLLDLSNEGFTNWEFMTVHCWGEKAEGQWTLEIQDLPSQVRNPEKQGKLKEWSLILYGTAEHPYHTFSAHQSRSRMLELSAPELEPPKAALSPSQVEVPEDEEDYTAQSTPGSANILQTSVCHPECGDKGCDGPNADQCLNCVHFSLGSVKTSRKCVSVCPLGYFGDTAARRCRRCHKGCETCSSRAATQCLSCRRGFYHHQEMNTCVTLCPAGFYADESQKNCLKCHPSCKKCVDEPEKCTVCKEGFSLARGSCIPDCEPGTYFDSELIRCGECHHTCGTCVGPGREECIHCAKNFHFHDWKCVPACGEGFYPEEMPGLPHKVCRRCDENCLSCAGSSRNCSRCKTGFTQLGTSCITNHTCSNADETFCEMVKSNRLCERKLFIQFCCRTCLLAG
B3: rat PC7 (protein)
chain: SIHFNDPKYPQQWHLNNRRSPGRDINVTGVWERNVTGRGVTVVVVDDGVEHTVQDIAPNYSPEGSYDLNSNDPDPMPHPDEENGNHHGTRCAGEIAAVPNNSFCAVGVAYGSRIAGIRVLDGPLTDSMEAVAFNKHYQINDIYSCSWGPDDDGKTVDGPHQLGKAALQHGVMAGRQGFGSIFVVASGNGGQHNDNCNYDGYANSIYTVTIGAVDEEGRMPFYAEECASMLAVTFSGGDKMLRSIVTTDWDLQKGTGCTEGHTGTSAAAPLAAGMIALMLQVRPCLTWRDVQHIIVFTATQYEDHRADWLTNEAGFSHSHQHGFGLLNAWRLVNAAKIWTSVPYLASYVSPMLKENKAVPRSPHSLEVLWNVSRTDLEMSGLKTLEHVAVTVSITHPRRGSLELKLFCPSGMMSLIGAPRSMDSDPNGFNDWTFSTVRCWGERARGVYRLVIRDVGDEPLQVGILQQWQLTLYGSTWSPVDIKDRQSLLESAMSGKYLHDDFTLPCPPGLKIPEEDGYSITPNTLKT
B4: [proBACES]FG/V5, doubly tagged soluble form of mouse proBACE (protein)
chain: DYKDDDDKQGTHLGIRLPLRSGLAGPPLGLRLPRETDEESEEPGRRGSFVEMVDNLRGKSGQGYYVEMTRGQPLTKLNILVDTGSSNFAVGAAPHPFLHRYYQRQLSSTYRDLRKGVYVPYTQGKWEGELGTDLVSIPHGPNVTVRANIAAITESDKFFINGSNWEGILGLAYAEIARPDDSLEPFFDSLVKQTHIPNIFSLQLCGAGFPLNQTEALASVGGSMIIGGIDHSLYTGSLWYTPIRREWYYEVIIVRVEINGQDLKMDCKEYNYDKSIVDSGTTNLRLPKKVFEAAVKSIKAASSTEKFPDGFWLGEQLVCWQAGTTPWNIFPVISLYLMGEVTNQSFRITILPQQYLRPVEDVATSQDDCYKFAVSQSSTGTVMGAVIMEGFYVVFDRARKRIGFAVSACHVHDEFRTAAVEGPFVTADMEDCGYNIPQTDESTGKPIPNPLLGLDST
B5: mouse PC5-A (protein)
chain: DYDLSHAQSTYFNDPKWPSMWYMHCSDNTHPCQSDMNIEGAWKRGYTGKNIVVTILDDGIERTHPDLMQNYDALASCDVNGNDLDPMPRYDASNENKHGTRCAGEVAATANNSHCTVGIAFNAKIGGVRMLDGDVTDMVEAKSVSYNPQHVHIYSASWGPDDDGKTVDGPAPLTRQAFENGVRMGRRGLGSVFVWASGNGGRSKDHCSCDGYTNSIYTISISSTAESGKKPWYLEECSSTLATTYSSGESYDKKIITTDLRQRCTDNHTGTSASAPMAAGIIALALEANPFLTWRDVQHVIVRTSRAGHLNANDWKTNAAGFKVSHLYGFGLMDAEAMVMEAEKWTTVPQQHVCVESTDRQIKTIRPNSAVRSIYKASGCSDNPNHHVNYLEHVVVRITITHPRRGDLAIYLTSPSGTRSQLLANRLFDHSMEGFKNWEFMTIHCWGERAAGDWVLEVYDTPSQLRNFKTPGKLKEWSLVLYGTSVQPYSPTNEFPKVERFRYSRVEDPTDDYGAEDYAGPCDPECSEVGCDGPGPDHCSDCLHYYYKLKNNTRICVSSCPPGHYHADKKRCRKCAPNCESCFGSHGNQCLSCKYGYFLNEETSSCVTQCPDGSYEDIKKNVCGKCSENCKACIGFHNCTECKGGLSLQGSRCSVTCEDGQFFNGHDCQPCHRFCATCSGAGADGCINCTEGYVMEEGRCVQSCSVSYYLDHSSEGGYKSCKRCDNSCLTCNGPGFKNCSSCPSGYLLDLGTCQMGAICKDATEESWAEGGFCMLVKKNNLCQRKVLQQLCCKTCTFQG

Key:
[1] = target: T1, PC cleavage site-spanning peptide of …
[2] = target: [proBACES]FG/V5, doubly tagged soluble form of mouse proBACE
[3] = target: T2, 20 aa synthetic peptide spanning the …

Protein	cleavage of the peptide spanning the N-terminal furin-consensus site [1]	in vitro processing of the R45A mutant of proBACES, Western blot ([proBACES-R45A]FG/V5)	in vitro processing of proBACE into BACE, Western blot with FG or V5 antibodies [2]	cleavage of the peptide spanning the N-terminal furin-consensus site, RP-HPLC and MALDI-TOF [1]	β-secretase activity of affinity-purified proBACE on the synthetic peptide substrate [3]
B1	no detectable cleavage of this peptide was observed by either crude or partially purified soluble BACE [BACES]V5 (not shown)	–	–	–	–
B2	–	none of the PCs tested could cleave this form	which was superior to the abilities of PC5 and PACE4 to carry out this cleavage	–	–
B3	–	none of the PCs tested could cleave this form	PC7 is barely, if at all, able to perform this reaction	PC7 could barely cleave this sequence, even when a 10-fold excess (as assessed by pERTKR-MCA hydrolysis) of activity was employed	–
B4	–	–	–	–	the resulting material had no detectable activity unless first pre-incubated with furin
B5	–	none of the PCs tested could cleave this form	which was superior to the abilities of PC5 and PACE4 to carry out this cleavage	The best processing rates were observed with furin and PC5 (not shown)	–
